T1: Fc fusion protein of the RBD-SD1 region of MERS-CoV (MERS-CoV, UniProt K9N5Q8 367-655)
T1 sequence: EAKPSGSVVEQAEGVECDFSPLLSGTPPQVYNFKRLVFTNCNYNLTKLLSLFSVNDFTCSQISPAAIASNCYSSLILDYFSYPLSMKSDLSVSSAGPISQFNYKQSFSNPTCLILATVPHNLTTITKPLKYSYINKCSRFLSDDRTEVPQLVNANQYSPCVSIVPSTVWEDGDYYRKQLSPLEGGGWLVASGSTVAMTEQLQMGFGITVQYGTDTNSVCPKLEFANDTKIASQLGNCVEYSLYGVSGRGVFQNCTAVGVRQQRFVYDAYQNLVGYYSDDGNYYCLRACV

T2: Fc fusion protein of the RBD-SD1 region of HCoV-HKU1 (HCoV-HKU1, UniProt Q5MQD0 310-677)
T2 construct: domain: RBD-SD1 region
T2 sequence: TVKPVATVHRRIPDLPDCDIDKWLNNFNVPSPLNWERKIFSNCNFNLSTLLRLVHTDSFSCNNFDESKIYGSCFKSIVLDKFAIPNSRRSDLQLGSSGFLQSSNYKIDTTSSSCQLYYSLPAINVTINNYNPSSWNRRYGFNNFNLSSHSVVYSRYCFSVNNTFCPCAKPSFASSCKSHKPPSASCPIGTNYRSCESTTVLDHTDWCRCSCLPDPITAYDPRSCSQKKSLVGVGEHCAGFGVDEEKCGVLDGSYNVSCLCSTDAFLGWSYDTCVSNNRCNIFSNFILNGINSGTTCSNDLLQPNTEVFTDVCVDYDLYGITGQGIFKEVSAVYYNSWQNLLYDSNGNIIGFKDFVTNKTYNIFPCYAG

T3: Fc fusion protein of the RBD-SD1 region of HCoV-OC43 (HCoV-OC43, UniProt P36334 318-675)
T3 construct: domain: RBD-SD1 region
T3 sequence: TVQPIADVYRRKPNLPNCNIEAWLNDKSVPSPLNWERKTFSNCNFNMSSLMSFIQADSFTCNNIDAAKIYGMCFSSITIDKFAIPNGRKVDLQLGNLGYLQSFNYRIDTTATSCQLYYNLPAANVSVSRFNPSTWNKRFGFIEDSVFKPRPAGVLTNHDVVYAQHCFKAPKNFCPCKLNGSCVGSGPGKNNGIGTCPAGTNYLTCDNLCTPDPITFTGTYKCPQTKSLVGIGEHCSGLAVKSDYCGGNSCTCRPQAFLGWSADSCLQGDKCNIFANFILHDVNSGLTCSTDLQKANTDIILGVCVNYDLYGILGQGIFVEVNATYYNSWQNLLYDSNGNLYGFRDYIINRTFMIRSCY

B1: HK CV38-113 (antibody, V domains shown)
VH: EVQLVESGGGLVQPGGSLRLSCAASGFTVSSNYMSWVRQAPGKGLEWVSVIYSGGSTYYADSVKGRFTISRHNSKNTLYLQMNSLRAEDTAVYFCARGGRLADAAGDYWGQGTLVTVSS
VL: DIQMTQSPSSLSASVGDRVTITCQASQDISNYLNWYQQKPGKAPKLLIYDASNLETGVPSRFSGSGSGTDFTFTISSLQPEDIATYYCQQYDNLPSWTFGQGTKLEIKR
B2: HL CV07-315 (antibody, V domains shown)
VH: EVQLVESGGGLVQPGRSLRLSCAASGFTFDDYAMHWVRQAPGKGLEWVSGISWNSGSIGYADSVKGRFTISRDNAKNSLYLQMNSLRAEDTALYYCAKDFLWDLHPPRYYGMDVWGQGTTVTVSS
VL: QSVLTRPPSVSAAPGQKVTISCSGSSSNIGNNYVSWYQQLPGTAPKLLIYENNKRPSGIPDRFSGSKSGTSATLGITGLQTGDEADYYCGTWDSSLNGVFGGGTKLTVLG
B3: HL CV07-250 (antibody, V domains shown)
VH: QVQLVQSEAEVKEPGASVEVSCKASGYNFTNFAISWVRQAPGQGLEWMGWISGYNGDTNSAQKFLGRVTMTTDTSTTTAYMELRSLRSDDTAVYYCAGSDNYGFPYNGMDVWGQGTTVTVSS
VL: QSALTQPPSASGSPGQSVTISCTGTSSDLGAYHFVTWYQHYPGKAPKVMIYGVRKRPSGVPDRFSGSKSGNTASLTVSGLQDEDEADYYCSSYAGNNDFVFGGGTKLTVLS
B4: HL CV07-283 (antibody, V domains shown)
VH: QVQLVQSGAEVKKPGASAKVSCKASGYTFTGYYIHWVRQAPGQGLEWMGLINPISGGTNYAQKFQDRVTMTRDTSISTAYMELSRLRSDDTAVYYCVRGPFYYDSSGPLGGMDVWGQGTTVTVSS
VL: QSALTQPASVSGSPGQSITISCTGTSGDVGGYNYVSWYQQHPGKAPKLMIYEVSNRPSGVSNRFSGSKSGNTASLTISGLQAEDEADYYCSSYTSSSTYVFGTGTKVTVLG

The first experiment deals with SARS-CoV-2 S protein-RBD-mFc (SARS-CoV-2, UniProt P0DTC2 319-537).
Test: not given
By Kd is commonly meant the equilibrium constant for the complex coming apart. B1 yielded a Kd of 134 pM.
Consider B2, for which the Kd was determined as 11.2 pM.
For the molecule B3, binding was characterised by a dissociation constant (Kd) of 56.4 pM.
B4 had a Kd of 47.5 pM.

For a further experiment, the target named is beta-2 microglobulin (Homo sapiens (Human), UniProt P61769 21-119). Nature of the experiment: routine laboratory ELISA. On the technique in general: An ELISA detects its analyte on a solid surface through an enzyme-linked reagent.
Sequence of beta-2 microglobulin (P61769 21-119 limits assumed): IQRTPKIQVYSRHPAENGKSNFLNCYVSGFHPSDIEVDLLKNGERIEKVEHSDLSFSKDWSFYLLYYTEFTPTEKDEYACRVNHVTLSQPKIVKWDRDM
On to B1, for which the binding result is “no binding (tested: 50 µg/ml)”.
For the molecule B2, the binding result is on record as “no binding (tested: 50 µg/ml)”.
Still for that read-out and setting: with B3 the entry was “no binding (tested: 50 µg/ml)”; with B4, “no binding (tested: 50 µg/ml)”.

For a further experiment, the target named is T4, Spike protein of authentic SARS-CoV-2 (Munich isolate 984) (SARS-CoV-2, UniProt P0DTC2 14-1273). The experiment in a line: cell-based or functional assay. Details: IC90 Neutralizing Assay: unit not given beside the values.
As to B1, the “IC50 Neutralizing Assay” value was around 0.05 µg/mL.
Take B2: the “IC50 Neutralizing Assay” value was around 0.05 µg/mL.
For B3, the “IC90 Neutralizing Assay” value is above 500.
Take B4: the “IC50 Neutralizing Assay” value is around 0.05 µg/mL and the “IC90 Neutralizing Assay” value is above 500.

A further experiment concerns the target T4, Spike protein of authentic SARS-CoV-2 …. The experiment in a line: cell-based or functional assay. This is another data set of the same source.
In the case of B1, the “IC50 (PRNT, authentic SARS-CoV-2)” value amounted to 0.0208 µg/mL.
Still for that read-out and setting: with B2 the figure was 0.0249 µg/mL.
As to B3, the “IC50 (PRNT, authentic SARS-CoV-2)” value amounted to 0.0035 µg/mL.
B4: the “IC50 (PRNT, authentic SARS-CoV-2)” value was 0.0169 µg/mL.

Another experiment concerns the target Fc fusion protein of the RBD-SD1 region of SARS-CoV (SARS-CoV, UniProt P59594 306-577). The experiment in a line: ELISA on captured RBD-SD1-Fc.
For the molecule B1, the binding result is “no binding (tested: 1 µg/ml)”.
For the molecule B2, the binding result is recorded as “no binding (tested: 1 µg/ml)”.
In the case of B3, the binding result is listed as “no binding (tested: 1 µg/ml)”.
The same measure, in the same setting: as for B4, the entry is “no binding (tested: 1 µg/ml)”.

The next experiment deals with T1, Fc fusion protein of the RBD-SD1 region …. Nature of the experiment: ELISA on captured RBD-SD1-Fc.
Consider B1, for which the binding result is “no binding (tested: 1 µg/ml)”.
On the same count and under the same terms, with B2 the entry was “no binding (tested: 1 µg/ml)”.
On the same count and under the same terms, as for B3, the entry is “no binding (tested: 1 µg/ml)”; as for B4, “no binding (tested: 1 µg/ml)”.

A further experiment addresses T2, Fc fusion protein of the RBD-SD1 region …. Nature of the experiment: ELISA on captured RBD-SD1-Fc.
Take B1: the binding result was “no binding (tested: 1 µg/ml)”.
For the molecule B2, the binding result is recorded as “no binding (tested: 1 µg/ml)”.
The same measure, in the same setting: with B3 the entry was “no binding (tested: 1 µg/ml)”; with B4, “no binding (tested: 1 µg/ml)”.

The next experiment deals with T3, Fc fusion protein of the RBD-SD1 region …. Nature of the experiment: ELISA on captured RBD-SD1-Fc.
Consider B1, for which the binding result was “no binding (tested: 1 µg/ml)”.
Same read-out and setting: as for B2, the entry is “no binding (tested: 1 µg/ml)”; as for B3, “no binding (tested: 1 µg/ml)”; as for B4, “no binding (tested: 1 µg/ml)”.

(Values after patent US20240376180A1 (DEUTSCHES ZENTRUM FUR NEURODEGENERATIVE ERKRANKUNGEN E V …, published 2024).)
